For the assay, the target named is DDE. The assay can be described thus: direct binding fluorescence polarization: CF5-labeled peptide titrated with DDE; n = 2. (Polarisation of emitted light reports the rotation of a fluorescent probe.)

Bridge positions count the residues as written; N and C are the ends. Square brackets hold non-standard residues; d marks the D form. Ends that are not written are not given here. * marks the point of attachment. αGalNAc = CC(=O)N[C@@H]1[C@@H](O)[C@@H](O)[C@@H](CO)O[C@@H]1*; 5FAM = O=C1OC2(c3ccc(O)cc3Oc3cc(O)ccc32)c2ccc(C(=O)*)cc21; Phe(3,4-F2) = N[C@@H](Cc1ccc(F)c(F)c1)C(=O)O; Thf2ca = tetrahydrofuran-2-carboxylic acid; Phe(4-F) = N[C@@H](Cc1ccc(F)cc1)C(=O)O; Cha = N[C@@H](CC1CCCCC1)C(=O)O; CF5 = 5-carboxyfluorescein

17 molecules from patent publication US20120328512A1 (BRACCO IMAGING S P A, published 2012) can be followed below.

B1: Seq038-CF5 (peptide)
peptide: H-GWQPCPAESWTFCWDPGGGK(5FAM)-NH2
modifications: disulfide 5-13
SMILES: C[C@@H]1NC(=O)[C@@H]2CCCN2C(=O)[C@@H](NC(=O)[C@@H]2CCCN2C(=O)[C@H](CCC(N)=O)NC(=O)[C@H](Cc2c[nH]c3ccccc23)NC(=O)CN)CSSC[C@@H](C(=O)N[C@@H](Cc2c[nH]c3ccccc23)C(=O)N[C@@H](CC(=O)O)C(=O)N2CCC[C@H]2C(=O)NCC(=O)NCC(=O)NCC(=O)N[C@@H](CCCCNC(=O)c2ccc3c(c2)C(=O)OC32c3ccc(O)cc3Oc3cc(O)ccc32)C(N)=O)NC(=O)[C@H](Cc2ccccc2)NC(=O)[C@H]([C@@H](C)O)NC(=O)[C@H](Cc2c[nH]c3ccccc23)NC(=O)[C@H](CO)NC(=O)[C@H](CCC(=O)O)NC1=O
As to B1, the Kd (usually a measure of binding affinity in units of concentration) was determined as 240 nM.

B2: Seq049-CF5 (peptide)
peptide: Ac-RWQPCPAESWTFCWDPGGGK(5FAM)-NH2
modifications: disulfide 5-13; not fully specified
B2: the Kd came to 210 nM. The Kd values of the last two molecules are within 1.5-fold of each other.

B3: Seq018-CF5 (peptide)
peptide: Ac-WQPCPWESWT[Cha]CWDPGGGK(CF5)-NH2
modifications: disulfide 4-12
As for B3, the Kd amounted to 200 nM. This Kd and that of the molecule before are within 1.5-fold of each other.

B4: Seq055-CF5 (peptide)
peptide: Ac-GWQPCPAESWT[Cha]CWDPGGGK(CF5)-NH2
modifications: disulfide 5-13
Take B4: the Kd came out at 80 nM.

B5: Seq023-CF5 (peptide)
peptide: H-RWQPCPWESWTFCWDPGGGK(5FAM)-NH2
modifications: disulfide 5-13
SMILES: C[C@@H](O)[C@@H]1NC(=O)[C@H](Cc2c[nH]c3ccccc23)NC(=O)[C@H](CO)NC(=O)[C@H](CCC(=O)O)NC(=O)[C@H](Cc2c[nH]c3ccccc23)NC(=O)[C@@H]2CCCN2C(=O)[C@@H](NC(=O)[C@@H]2CCCN2C(=O)[C@H](CCC(N)=O)NC(=O)[C@H](Cc2c[nH]c3ccccc23)NC(=O)[C@@H](N)CCCNC(=N)N)CSSC[C@@H](C(=O)N[C@@H](Cc2c[nH]c3ccccc23)C(=O)N[C@@H](CC(=O)O)C(=O)N2CCC[C@H]2C(=O)NCC(=O)NCC(=O)NCC(=O)N[C@@H](CCCCNC(=O)c2ccc3c(c2)C(=O)OC32c3ccc(O)cc3Oc3cc(O)ccc32)C(N)=O)NC(=O)[C@H](Cc2ccccc2)NC1=O
For B5, the Kd turned out to be 110 nM.

B6: Seq053-CF5 (peptide)
peptide: Ac-RGWQPCPAESWT[Cha]CWDPGGGK(CF5)-NH2
modifications: disulfide 6-14
Regarding B6, the Kd came to 100 nM.

B7: Seq028-CF5 (peptide)
peptide: Thf2ca-WQPCPWESWTFCWDPGGGK(CF5)-NH2
modifications: disulfide 4-12
In turn, B7 had a dissociation constant Kd of 1210 nM. This Kd lies about 12-fold higher than the previous one.

B8: Seq054-CF5 (peptide)
peptide: RGWQPCPAESWT[Cha]CWDPGGGK(CF5)-NH2
modifications: disulfide 6-14
Turning to B8, the Kd turned out to be 50 nM. This Kd is about 24-fold lower than that of the molecule before.

B9: Seq039-CF5 (peptide)
peptide: Ac-GWQPCPAESWTFCWDPGGGK(5FAM)-NH2
modifications: disulfide 5-13
SMILES: CC(=O)NCC(=O)N[C@@H](Cc1c[nH]c2ccccc12)C(=O)N[C@@H](CCC(N)=O)C(=O)N1CCC[C@H]1C(=O)N[C@H]1CSSC[C@@H](C(=O)N[C@@H](Cc2c[nH]c3ccccc23)C(=O)N[C@@H](CC(=O)O)C(=O)N2CCC[C@H]2C(=O)NCC(=O)NCC(=O)NCC(=O)N[C@@H](CCCCNC(=O)c2ccc3c(c2)C(=O)OC32c3ccc(O)cc3Oc3cc(O)ccc32)C(N)=O)NC(=O)[C@H](Cc2ccccc2)NC(=O)[C@H]([C@@H](C)O)NC(=O)[C@H](Cc2c[nH]c3ccccc23)NC(=O)[C@H](CO)NC(=O)[C@H](CCC(=O)O)NC(=O)[C@H](C)NC(=O)[C@@H]2CCCN2C1=O
For B9, the Kd amounted to 240 nM.

B10: Seq052-CF5 (peptide)
peptide: Ac-RGWQPCPWESWTFCWDPGGGK(5FAM)-NH2
modifications: disulfide 6-14; not fully specified
In turn, B10 registered a Kd of 530 nM. This Kd lies about 2.2-fold higher than the previous one.

B11: Seq022-CF5 (peptide)
peptide: H-RGWQPCPWESWTFCWDPGGGK(5FAM)-NH2
modifications: disulfide 6-14
SMILES: C[C@@H](O)[C@@H]1NC(=O)[C@H](Cc2c[nH]c3ccccc23)NC(=O)[C@H](CO)NC(=O)[C@H](CCC(=O)O)NC(=O)[C@H](Cc2c[nH]c3ccccc23)NC(=O)[C@@H]2CCCN2C(=O)[C@@H](NC(=O)[C@@H]2CCCN2C(=O)[C@H](CCC(N)=O)NC(=O)[C@H](Cc2c[nH]c3ccccc23)NC(=O)CNC(=O)[C@@H](N)CCCNC(=N)N)CSSC[C@@H](C(=O)N[C@@H](Cc2c[nH]c3ccccc23)C(=O)N[C@@H](CC(=O)O)C(=O)N2CCC[C@H]2C(=O)NCC(=O)NCC(=O)NCC(=O)N[C@@H](CCCCNC(=O)c2ccc3c(c2)C(=O)OC32c3ccc(O)cc3Oc3cc(O)ccc32)C(N)=O)NC(=O)[C@H](Cc2ccccc2)NC1=O
In turn, B11 returned a Kd of 280 nM.

B12: Seq050-CF5 (peptide)
peptide: Ac-RWQPCPAESWT[Cha]CWDPGGGK(CF5)-NH2
modifications: disulfide 5-13
Take B12: the dissociation constant (Kd) stood at 80 nM.

B13: Seq020-CF5 (peptide)
peptide: Ac-WQPCPWESWT[Phe(3,4-F2)]CWDPGGGK(CF5)-NH2
modifications: disulfide 4-12
B13 returned a Kd of 700 nM.

B14: Seq051-CF5 (peptide)
peptide: GWQPCPAESWT[Cha]CWDPGGGK(CF5)-NH2
modifications: disulfide 5-13
B14 displayed a Kd of 60 nM.

B15: Seq048-CF5 (peptide)
peptide: Ac-RWQPCPWESWTFCWDPGGGK(5FAM)-NH2
modifications: disulfide 5-13
SMILES: CC(=O)N[C@@H](CCCNC(=N)N)C(=O)N[C@@H](Cc1c[nH]c2ccccc12)C(=O)N[C@@H](CCC(N)=O)C(=O)N1CCC[C@H]1C(=O)N[C@H]1CSSC[C@@H](C(=O)N[C@@H](Cc2c[nH]c3ccccc23)C(=O)N[C@@H](CC(=O)O)C(=O)N2CCC[C@H]2C(=O)NCC(=O)NCC(=O)NCC(=O)N[C@@H](CCCCNC(=O)c2ccc3c(c2)C(=O)OC32c3ccc(O)cc3Oc3cc(O)ccc32)C(N)=O)NC(=O)[C@H](Cc2ccccc2)NC(=O)[C@H]([C@@H](C)O)NC(=O)[C@H](Cc2c[nH]c3ccccc23)NC(=O)[C@H](CO)NC(=O)[C@H](CCC(=O)O)NC(=O)[C@H](Cc2c[nH]c3ccccc23)NC(=O)[C@@H]2CCCN2C1=O
Consider B15, for which the Kd came to 110 nM.

B16: Seq019-CF5 (peptide)
peptide: Ac-WQPCPWESWT[Phe(4-F)]CWDPGGGK(CF5)-NH2
modifications: disulfide 4-12
As for B16, the Kd came out at 1020 nM.

B17: Seq027-CF5 (peptide)
peptide: Ac-S(αGalNAc)WQPCPWESWTFCWDPGGGK(CF5)-NH2
modifications: disulfide 5-13
B17 came in with a Kd of 500 nM. This Kd lies about 2-fold lower than the previous one.
